Laboratory results: patent publication US20110064819A1, “ENCAPSULATION OF BIOLOGICALLY ACTIVE AGENTS” (priority 2008, published 2011)

Assay: HIP extraction of dalargin into the organic phase (LC-MS and Edman sequencing)
Assay type: physicochemical
Details: docusate sodium in dichloromethane, peptide solution pH 3.05
Protocol: A solution of the hexapeptide dalargin was prepared by dissolving 30-60 mg of the peptide into 3 ml of CaCl2 (18.3 mM) and lowering the pH to 3.05 by addition of concentrated HCl (2M). The resulting solution (500 μl, 10-20 mg/ml, and total amount of peptide 5-10 mg) was added to a solution of the HIP agent docusate sodium in dichloromethane (1 ml, 3.058-6.116% w/v) in a 2 ml eppendorf tube. The volume of HIP solution used was twice that of the peptide solution (1 ml HIP solution for 500 μl peptide solution). The molar ratio of HIP:peptide was 10:1 with 5 mg peptide and 5:1 with 10 mg peptide. The organic and aqueous phases were mixed by vortexing at maximum speed for 1 minute. The resulting suspension was then centrifuged to separate the two phases at 20,817 rcf for 50 minutes. The organic layer (containing solubilised peptide) was collected and used to prepare nanoparticles. In order to confirm that the process had been successful at solubilising the peptide into the organic phase, the amount of peptide remaining in the aqueous phase was determined.

## dalargin (YAGFLR; Humanised sequence of mus musculus and homo sapiens) [hexapeptide YAGFLR]
  Peptide extracted into the organic phase: at least 99%
